Laboratory results reported in US20090214574A1.

Legend:
[1] = biological target: native CD16A on human peripheral blood NK cells (human) (UniProt P08637); assay: cell-based or functional assay
CD16B-Fc^NA1 (human) [2] = biological target: CD16B-Fc^NA1 (human) (UniProt O75015); assay: SPR, BIAcore 2000, antigen immobilized
CD16B-Fc^NA2 (human) [3] = biological target: CD16B-Fc^NA2 (human) (UniProt O75015); assay: SPR, BIAcore 2000, antigen immobilized
CD16B-Fc^SH (human) [4] = biological target: CD16B-Fc^SH (human) (UniProt O75015); assay: SPR, BIAcore 2000, antigen immobilized
[5] = biological target: human CD16A-Fc^48R/158F fusion protein (human) (UniProt P08637); assay: SPR, BIAcore 2000, antigen immobilized
[6] = biological target: human CD16A-Fc^48R/158V fusion protein (human) (UniProt P08637); assay: SPR, BIAcore 2000, antigen immobilized
CD16B-Fc^NA1 (human) [7] = biological target: CD16B-Fc^NA1 (human) (UniProt O75015); assay: SPR, BIAcore 2000, antigen immobilized, koff/kon
CD16B-Fc^NA2 (human) [8] = biological target: CD16B-Fc^NA2 (human) (UniProt O75015); assay: SPR, BIAcore 2000, antigen immobilized, koff/kon
CD16B-Fc^SH (human) [9] = biological target: CD16B-Fc^SH (human) (UniProt O75015); assay: SPR, BIAcore 2000, antigen immobilized, koff/kon
[10] = biological target: human CD16A-Fc^48R/158F fusion protein (human) (UniProt P08637); assay: SPR, BIAcore 2000, antigen immobilized, koff/kon
[11] = biological target: human CD16A-Fc^48R/158V fusion protein (human) (UniProt P08637); assay: SPR, BIAcore 2000, antigen immobilized, koff/kon
[12] = biological target: human CD16A-Fc^48R/158V fusion protein (human) (UniProt P08637); assay: SPR, BIAcore 2000, CD16A-Fc immobilized on CM5, koff/kon
[13] = biological target: human CD16A-Fc^48R/158V fusion protein (human) (UniProt P08637); assay: SPR, BIAcore 2000, CD16A-Fc immobilized on CM5, 1:1 Langmuir

Sequence of human CD16A-Fc^48R/158F fusion protein (human) (P08637 17-208): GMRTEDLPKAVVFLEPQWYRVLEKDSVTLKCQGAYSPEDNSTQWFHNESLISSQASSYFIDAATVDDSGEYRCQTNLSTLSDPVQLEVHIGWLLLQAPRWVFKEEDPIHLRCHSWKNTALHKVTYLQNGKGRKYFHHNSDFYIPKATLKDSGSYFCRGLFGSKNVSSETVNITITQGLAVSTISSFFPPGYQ
Sequence of CD16B-Fc^NA2 (human) (O75015 17-200 N65S): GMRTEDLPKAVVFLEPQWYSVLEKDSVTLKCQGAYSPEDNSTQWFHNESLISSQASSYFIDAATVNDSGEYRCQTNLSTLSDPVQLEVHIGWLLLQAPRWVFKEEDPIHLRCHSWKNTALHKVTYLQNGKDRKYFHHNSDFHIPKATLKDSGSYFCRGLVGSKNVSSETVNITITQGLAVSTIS
Sequence of human CD16A-Fc^48R/158V fusion protein (human) (P08637 17-208 L66R/F176V limits assumed): as the sequence (P08637 17-208) above, with L50R, F160V counted along it
Sequence of CD16B-Fc^SH (human) (O75015 17-200 N65S/A78D): as the sequence (O75015 17-200 N65S) above, with A62D counted along it
Sequence of CD16B-Fc^NA1 (human) (O75015 other isoform, or with tags, fused parts or gaps): as the sequence (O75015 17-200 N65S) above, with S20R, S49N, N66D, I90V counted along it
Sequence of native CD16A on human peripheral blood NK cells (human) (P08637 17-254): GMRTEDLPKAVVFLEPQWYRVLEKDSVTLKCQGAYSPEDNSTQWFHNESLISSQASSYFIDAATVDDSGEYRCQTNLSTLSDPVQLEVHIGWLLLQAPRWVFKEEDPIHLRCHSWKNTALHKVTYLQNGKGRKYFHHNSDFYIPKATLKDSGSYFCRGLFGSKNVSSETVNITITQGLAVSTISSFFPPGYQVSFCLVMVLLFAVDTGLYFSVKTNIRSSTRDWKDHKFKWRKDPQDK

anti-CD16 murine monoclonal antibody A9
lysis of P815 targets by NK cells (calcein release), 1 µg/mL antibody [1]: 65% | koff (CD16B-Fc^NA1 (human) [2]): 0.000487 s⁻¹ | kon (CD16B-Fc^NA1 (human) [2]): 77200 M⁻¹ s⁻¹ | koff (CD16B-Fc^NA2 (human) [3]): 0.000478 s⁻¹ | kon (CD16B-Fc^NA2 (human) [3]): 75700 M⁻¹ s⁻¹ | koff (CD16B-Fc^SH (human) [4]): 0.000528 s⁻¹ | kon (CD16B-Fc^SH (human) [4]): 77900 M⁻¹ s⁻¹ | koff [5]: 0.00038 s⁻¹ | kon [5]: 99400 M⁻¹ s⁻¹ | koff [6]: 0.000406 s⁻¹ | kon [6]: 78600 M⁻¹ s⁻¹ | Kd (CD16B-Fc^NA1 (human) [7]): 8.91 nM | Kd (CD16B-Fc^NA2 (human) [8]): 9.63 nM | Kd (CD16B-Fc^SH (human) [9]): 11.4 nM | Kd [10]: 3.82 nM | Kd [11]: 5.17 nM | Kd [12]: 1.75 nM | koff [13]: 0.000177 s⁻¹ | kon [13]: 101000 M⁻¹ s⁻¹
